According to PMC5384658, “The evolution of Sex-linked barring alleles in chickens involves both regulatory and coding changes in CDKN2A” (PLoS Genetics, 2017):
Each block holds one substance with its values, some of them ahead of it.

Assays:
[1] = molecular target: chicken MDM2_(204-298) (chicken)
[2] = ultracentrifugation, far-UV CD and NMR; ref [21], [22]; cited from earlier work
From the text: The striking phenotypic differences associated with the B0, B1, and B2 alleles imply that the two missense mutations must affect ARF function since all three alleles share the two non-coding changes associated with Sex-linked barring (Fig 1). To learn more about the specific effects of the coding ARF mutations we performed biophysical studies on peptides corresponding to the N-terminus of wild-type and mutant chicken ARF (ARF1-14^WT, ARF1-14^V9D, ARF1-14^R10C) and purified chicken MDM2_204-298. Previously, using a combination of ultracentrifugation, far-UV circular dichroism (CD) and NMR exper ...

p53-luc luciferase reporter activity in U2OS cells transfected with chicken ARF (coding region, pcDNA3.1) carrying R10C, compared to wild-type chicken ARF (% of wild type) [1]: 77
Substance: ARF_(1-14)^R10C peptide (N-terminus of chicken ARF with R10C, B2 allele) (from UniProt A0A8V0X483 1-14)

Substance: MDM2_210-304: human MDM2 XP_005268929 residues 210-304, corresponding to chicken MDM2_204-298
structure in free state [2]: intrinsically disordered in their free states

p53-luc luciferase reporter activity in U2OS cells transfected with chicken ARF (coding region, pcDNA3.1) carrying V9D, compared to wild-type chicken ARF (% of wild type) [1]: 58
Substance: ARF_(1-14)^V9D peptide (N-terminus of chicken ARF with V9D, B1 allele) (from UniProt A0A8V0X483 1-14)
